Test results from PMC10939272, “Structural insights into the octamerization of glycerol dehydrogenase” (PLOS ONE, 2024).

Target: the molecule itself
Assay: crystal structure; hanging-drop vapor diffusion, 20°C, pH 4.2, with ZnCl2 and NAD+, soaked in glycerol; space group I422, 2.0 Å; octamer by non-crystallographic 2-fold and crystallographic 4-fold symmetry

B1: Escherichia coli glycerol dehydrogenase (GDH), full-length (1-367) (enzyme, E. coli K12 MG1655, UniProt P0A9S5 1-367, looked up)
chain: MDRIIQSPGKYIQGADVINRLGEYLKPLAERWLVVGDKFVLGFAQSTVEKSFKDAGLVVEIAPFGGECSQNEIDRLRGIAETAQCGAILGIGGGKTLDTAKALAHFMGVPVAIAPTIASTDAPCSALSVIYTDEGEFDRYLLLPNNPNMVIVDTKIVAGAPARLLAAGIGDALATWFEARACSRSGATTMAGGKCTQAALALAELCYNTLLEEGEKAMLAAEQHVVTPALERVIEANTYLSGVGFESGGLAAAHAVHNGLTAIPDAHHYYHGEKVAFGTLTQLVLENAPVEEIETVAALSHAVGLPITLAQLDIKEDVPAKMRIVAEAACAEGETIHNMPGGATPDQVYAALLVADQYGQRFLQEWE
notes: glycerol dehydrogenase (GDH; EC 1.1.1.6) of E. coli K12 MG1655, full length, residues 1-367; Homo-octamer; Two protomers (Mol-A, Mol-B) lie in the asymmetric unit and the octamer is formed by crystallographic 4-fold symmetry; Crystallised with Zn2+ and NAD+ and soaked in glycerol; also called E. coli GDH; GDH^NAD∙Gly; source: E. coli BL21 (DE3), purified (Ni-IDA, size-exclusion chromatography)
  stoichiometry N: 8
